What was measured:
[1] = tested on: AncSZ; assay: phosphorylation enrichment, bacterial display (enrichment ratio); higher = better substrate or ligand; peptides without Tyr show the background
[2] = molecular target: EPHB1 (UniProt P54762); assay: as above
[3] = molecular target: EPHB2 (UniProt P29323); assay: as above
[4] = molecular target: FGFR1 (UniProt P11362); assay: as above
[5] = molecular target: FGFR3 (UniProt P22607); assay: as above
[6] = tested on: Fer (mouse); assay: as above
[7] = molecular target: Fes (UniProt P07332); assay: as above
[8] = molecular target: Fyn (UniProt P06241); assay: as above
[9] = molecular target: Hck (UniProt P08631); assay: as above
[10] = molecular target: Jak2 (UniProt O60674); assay: as above
[11] = molecular target: MERTK (UniProt Q12866); assay: as above
[12] = tested on: c-Abl (mouse); assay: as above
[13] = tested on: c-Src; assay: as above
[14] = molecular target: Grb2 SH2 (UniProt P62993); assay: SH2 binding enrichment of the phosphorylated peptide, bacterial display (enrichment ratio); higher = better substrate or ligand; peptides without Tyr show the background
[15] = molecular target: SHP2-C SH2; assay: as above
[16] = molecular target: c-Src SH2; assay: as above
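For SH2 binding enrichment of the phosphorylated peptide, bacterial display in this document: peptide library displayed on the E. coli surface as eCPX fusions, selected cells deep-sequenced, score is each peptide's frequency after selection divided by its frequency in the input.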
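For phosphorylation enrichment, bacterial display in this document: 11-residue human phosphosite peptides and single-mutation variants displayed on the E. coli surface, counted by deep sequencing, each peptide's frequency after selection divided by its frequency in the unselected input library; frequency after pTyr selection over input frequency; kinase dosed for 20-30% of maximal phosphorylation in three min.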

Chain of MERTK (Q12866 whole entry, looked up): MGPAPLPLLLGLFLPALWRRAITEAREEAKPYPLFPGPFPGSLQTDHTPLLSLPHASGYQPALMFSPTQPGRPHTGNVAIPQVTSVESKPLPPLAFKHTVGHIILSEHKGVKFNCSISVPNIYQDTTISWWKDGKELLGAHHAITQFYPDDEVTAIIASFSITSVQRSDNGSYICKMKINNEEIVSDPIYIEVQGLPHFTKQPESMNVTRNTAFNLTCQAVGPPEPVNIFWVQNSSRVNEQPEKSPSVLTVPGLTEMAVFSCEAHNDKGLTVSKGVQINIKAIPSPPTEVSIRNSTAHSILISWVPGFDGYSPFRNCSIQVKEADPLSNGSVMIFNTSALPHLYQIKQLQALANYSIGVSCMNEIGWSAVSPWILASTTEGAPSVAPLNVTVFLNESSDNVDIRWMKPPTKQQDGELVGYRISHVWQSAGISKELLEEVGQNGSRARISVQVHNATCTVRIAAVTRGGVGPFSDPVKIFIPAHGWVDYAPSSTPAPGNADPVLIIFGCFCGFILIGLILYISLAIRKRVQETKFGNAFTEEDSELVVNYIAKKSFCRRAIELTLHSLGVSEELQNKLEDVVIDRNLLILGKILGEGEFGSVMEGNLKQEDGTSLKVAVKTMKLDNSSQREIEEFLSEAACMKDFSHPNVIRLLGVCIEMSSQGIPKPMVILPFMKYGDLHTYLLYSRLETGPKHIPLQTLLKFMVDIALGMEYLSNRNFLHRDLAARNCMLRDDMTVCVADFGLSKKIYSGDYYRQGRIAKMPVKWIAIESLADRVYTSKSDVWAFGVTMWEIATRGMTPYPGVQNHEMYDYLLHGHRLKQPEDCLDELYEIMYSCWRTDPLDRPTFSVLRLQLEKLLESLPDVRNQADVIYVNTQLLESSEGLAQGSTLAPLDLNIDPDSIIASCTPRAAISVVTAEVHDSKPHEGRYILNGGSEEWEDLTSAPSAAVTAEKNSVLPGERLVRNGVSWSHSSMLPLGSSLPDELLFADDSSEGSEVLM
Chain of Fyn (P06241 whole entry, looked up): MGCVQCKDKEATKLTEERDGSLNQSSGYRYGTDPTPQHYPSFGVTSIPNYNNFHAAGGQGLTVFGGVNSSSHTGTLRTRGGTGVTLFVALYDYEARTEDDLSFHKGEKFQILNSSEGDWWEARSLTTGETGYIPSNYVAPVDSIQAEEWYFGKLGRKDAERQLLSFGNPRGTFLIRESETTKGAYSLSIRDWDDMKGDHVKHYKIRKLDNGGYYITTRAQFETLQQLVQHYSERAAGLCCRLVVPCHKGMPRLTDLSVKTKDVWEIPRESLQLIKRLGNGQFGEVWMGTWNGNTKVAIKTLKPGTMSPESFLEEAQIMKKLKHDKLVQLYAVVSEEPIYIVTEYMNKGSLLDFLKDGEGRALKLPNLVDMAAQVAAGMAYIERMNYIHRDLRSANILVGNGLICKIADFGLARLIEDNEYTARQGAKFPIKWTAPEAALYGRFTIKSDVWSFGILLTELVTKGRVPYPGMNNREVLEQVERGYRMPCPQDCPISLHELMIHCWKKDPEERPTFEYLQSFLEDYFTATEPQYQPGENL
Chain of EPHB2 (P29323 whole entry, looked up): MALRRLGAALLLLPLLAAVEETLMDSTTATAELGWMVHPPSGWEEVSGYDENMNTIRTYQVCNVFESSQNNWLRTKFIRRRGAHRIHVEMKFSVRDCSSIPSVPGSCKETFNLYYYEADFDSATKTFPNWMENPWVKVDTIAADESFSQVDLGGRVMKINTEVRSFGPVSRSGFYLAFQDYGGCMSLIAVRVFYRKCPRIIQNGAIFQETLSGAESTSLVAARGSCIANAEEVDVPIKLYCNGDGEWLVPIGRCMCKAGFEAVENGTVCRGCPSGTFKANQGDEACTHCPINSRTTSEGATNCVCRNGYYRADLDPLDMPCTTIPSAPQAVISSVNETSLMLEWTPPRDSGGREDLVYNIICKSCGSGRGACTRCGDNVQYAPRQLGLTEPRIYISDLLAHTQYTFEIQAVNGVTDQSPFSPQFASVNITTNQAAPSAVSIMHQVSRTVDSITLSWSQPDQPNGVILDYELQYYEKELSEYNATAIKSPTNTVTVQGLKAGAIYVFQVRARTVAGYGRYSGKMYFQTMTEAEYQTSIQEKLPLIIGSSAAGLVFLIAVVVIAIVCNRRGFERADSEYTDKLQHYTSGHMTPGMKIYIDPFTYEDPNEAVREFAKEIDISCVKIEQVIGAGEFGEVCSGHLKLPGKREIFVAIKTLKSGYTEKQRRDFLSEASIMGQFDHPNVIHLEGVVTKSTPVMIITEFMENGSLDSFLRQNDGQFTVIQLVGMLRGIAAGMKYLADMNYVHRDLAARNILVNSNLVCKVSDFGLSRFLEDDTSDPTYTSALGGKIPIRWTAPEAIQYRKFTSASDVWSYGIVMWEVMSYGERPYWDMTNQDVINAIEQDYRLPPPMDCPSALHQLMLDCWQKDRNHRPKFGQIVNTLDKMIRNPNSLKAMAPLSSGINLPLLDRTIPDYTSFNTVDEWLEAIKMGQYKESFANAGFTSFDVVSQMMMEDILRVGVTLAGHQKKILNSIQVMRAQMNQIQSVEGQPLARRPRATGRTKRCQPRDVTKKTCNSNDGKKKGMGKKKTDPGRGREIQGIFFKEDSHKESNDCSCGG
Chain of Jak2 (O60674 whole entry, looked up): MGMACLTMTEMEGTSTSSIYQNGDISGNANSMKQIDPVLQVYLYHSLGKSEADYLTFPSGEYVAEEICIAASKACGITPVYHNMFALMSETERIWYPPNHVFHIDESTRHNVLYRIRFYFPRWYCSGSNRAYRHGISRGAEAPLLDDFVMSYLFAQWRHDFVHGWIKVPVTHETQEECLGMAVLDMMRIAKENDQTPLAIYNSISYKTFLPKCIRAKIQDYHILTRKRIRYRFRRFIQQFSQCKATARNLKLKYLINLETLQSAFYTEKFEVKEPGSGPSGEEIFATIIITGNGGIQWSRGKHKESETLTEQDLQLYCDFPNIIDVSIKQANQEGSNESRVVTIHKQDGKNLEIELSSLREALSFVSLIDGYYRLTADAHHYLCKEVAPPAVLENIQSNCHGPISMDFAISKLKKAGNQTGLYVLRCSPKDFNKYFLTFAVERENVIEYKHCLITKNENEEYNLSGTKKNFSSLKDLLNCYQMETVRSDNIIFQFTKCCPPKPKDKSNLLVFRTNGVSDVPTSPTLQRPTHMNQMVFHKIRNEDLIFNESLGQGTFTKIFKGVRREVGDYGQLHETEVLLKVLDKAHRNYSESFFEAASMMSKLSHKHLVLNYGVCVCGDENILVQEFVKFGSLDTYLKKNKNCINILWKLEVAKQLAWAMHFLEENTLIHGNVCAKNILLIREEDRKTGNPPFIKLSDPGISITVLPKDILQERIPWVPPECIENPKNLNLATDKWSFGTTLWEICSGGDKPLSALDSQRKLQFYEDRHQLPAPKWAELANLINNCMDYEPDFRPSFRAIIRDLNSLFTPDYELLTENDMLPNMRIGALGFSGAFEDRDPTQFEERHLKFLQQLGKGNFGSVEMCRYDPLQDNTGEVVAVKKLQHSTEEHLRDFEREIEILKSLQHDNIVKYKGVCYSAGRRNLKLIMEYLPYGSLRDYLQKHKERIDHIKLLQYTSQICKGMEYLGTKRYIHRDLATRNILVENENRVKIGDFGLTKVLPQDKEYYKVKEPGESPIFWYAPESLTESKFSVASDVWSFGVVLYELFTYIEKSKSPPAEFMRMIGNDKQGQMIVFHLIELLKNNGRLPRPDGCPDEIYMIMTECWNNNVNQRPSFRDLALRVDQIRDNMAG
Chain of EPHB1 (P54762 whole entry, looked up): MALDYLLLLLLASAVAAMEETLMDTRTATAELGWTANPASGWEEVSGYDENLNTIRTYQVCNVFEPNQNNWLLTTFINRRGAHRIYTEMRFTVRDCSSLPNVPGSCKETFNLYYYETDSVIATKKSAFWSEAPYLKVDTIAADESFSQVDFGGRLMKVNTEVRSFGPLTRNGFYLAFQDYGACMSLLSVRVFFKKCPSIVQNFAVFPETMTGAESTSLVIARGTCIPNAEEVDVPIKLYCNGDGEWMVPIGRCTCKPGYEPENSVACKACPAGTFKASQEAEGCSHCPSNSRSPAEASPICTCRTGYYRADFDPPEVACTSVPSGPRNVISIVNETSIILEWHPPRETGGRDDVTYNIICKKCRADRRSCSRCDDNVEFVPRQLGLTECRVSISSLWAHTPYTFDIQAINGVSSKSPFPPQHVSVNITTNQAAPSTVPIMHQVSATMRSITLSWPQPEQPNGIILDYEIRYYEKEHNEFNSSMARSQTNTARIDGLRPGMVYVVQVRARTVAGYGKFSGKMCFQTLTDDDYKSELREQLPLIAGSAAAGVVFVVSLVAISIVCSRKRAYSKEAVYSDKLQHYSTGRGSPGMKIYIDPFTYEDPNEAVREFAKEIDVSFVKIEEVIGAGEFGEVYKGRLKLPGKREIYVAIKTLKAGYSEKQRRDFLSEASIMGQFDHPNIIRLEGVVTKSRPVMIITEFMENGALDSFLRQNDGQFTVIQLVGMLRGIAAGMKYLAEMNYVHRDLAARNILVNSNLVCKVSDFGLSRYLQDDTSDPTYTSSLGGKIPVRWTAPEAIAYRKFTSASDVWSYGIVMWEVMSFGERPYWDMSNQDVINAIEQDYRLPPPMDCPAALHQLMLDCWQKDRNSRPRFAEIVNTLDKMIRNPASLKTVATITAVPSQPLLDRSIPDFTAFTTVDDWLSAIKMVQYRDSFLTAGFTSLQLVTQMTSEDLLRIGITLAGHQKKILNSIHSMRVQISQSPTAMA
Chain of Grb2 SH2 (P62993 whole entry, looked up): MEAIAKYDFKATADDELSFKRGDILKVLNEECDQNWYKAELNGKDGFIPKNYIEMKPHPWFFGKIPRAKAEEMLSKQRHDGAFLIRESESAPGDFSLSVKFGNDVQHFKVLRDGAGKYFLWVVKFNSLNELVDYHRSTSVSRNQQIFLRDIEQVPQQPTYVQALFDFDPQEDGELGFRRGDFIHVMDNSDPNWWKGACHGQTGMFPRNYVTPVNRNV

Row | Sequence | phosphorylation enrichment [1] | phosphorylation enrichment [2] | phosphorylation enrichment [3] | phosphorylation enrichment [4] | phosphorylation enrichment [5] | phosphorylation enrichment [6] | phosphorylation enrichment [7] | phosphorylation enrichment [8] | phosphorylation enrichment [9] | phosphorylation enrichment [10] | phosphorylation enrichment [11] | phosphorylation enrichment [12] | phosphorylation enrichment [13] | SH2 binding enrichment [14] | SH2 binding enrichment [15] | SH2 binding enrichment [16]
1 | GAMGHYVLAER [HFE_Y342] | 0.643 | 0.387 | 0.403 | 0.38 | 0.446 | 0.453 | 0.659 | 0.41 | 0.44 | 0.511 | 0.452 | 0.505 | 0.437 | 1.18 | 0.91 | 2.46
2 | GCRSKYVGLWG [KCNQ1_Y184] | 0.61 | 0.41 | 0.456 | 0.432 | 0.506 | 0.408 | 0.708 | 0.38 | 0.363 | 0.605 | 0.463 | 0.511 | 0.452 | 1.01 | 1.05 | 0.779
3 | GDEEDYEEIPG [EGFR_opt_E_2015] | 1.36 | 0.893 | 0.59 | 0.62 | 0.823 | 0.645 | 1.38 | 0.596 | 0.527 | 1.36 | 0.498 | 0.898 | 0.598 | 0.993 | 0.624 | 0.779
4 | GDFFRYLAEVA [YWHAG_Y133_YF] | 1.07 | 0.503 | 0.51 | 0.683 | 0.664 | 0.486 | 1.18 | 0.432 | 0.477 | 0.964 | 0.429 | 0.78 | 0.447 | 0.763 | 0.561 | 0.469
5 | GDFSRYDEGSG [RECQL5_Y484] | 0.889 | 0.523 | 0.481 | 0.471 | 0.662 | 0.439 | 1.16 | 0.502 | 0.494 | 0.905 | 0.513 | 0.799 | 0.534 | 0.737 | 0.664 | 0.562
6 | GEFHVYRHLRW [PRKRIP1_Y82_R87W] | 1 | 0.499 | 0.458 | 0.442 | 0.682 | 0.413 | 1.08 | 0.428 | 0.429 | 0.995 | 0.345 | 0.723 | 0.329 | 0.972 | 0.838 | 0.887
7 | GEHSIYSTVNN [CD55_Y266_C267S] | 0.792 | 9.99 | 13 | 0.584 | 0.52 | 14.5 | 1.5 | 10.3 | 10.9 | 0.536 | 7.23 | 6.92 | 7.42 | 0.651 | 1.59 | 0.718
8 | GEIQEYGAPLD [ABCC1_Y1508_S1512L] | 1.15 | 0.74 | 0.716 | 0.598 | 0.798 | 0.528 | 1.09 | 0.514 | 0.485 | 1.03 | 0.467 | 0.743 | 0.485 | 0.822 | 0.734 | 0.454
9 | GEKKAYVRLAP [RPL23A_Y137] | 0.548 | 0.363 | 0.323 | 0.425 | 0.43 | 0.398 | 0.606 | 0.37 | 0.337 | 0.468 | 0.373 | 0.628 | 0.296 | 1.12 | 0.851 | 0.667
10 | GESLTYASTTF [C1orf162_Y120] | 0.592 | 0.5 | 0.644 | 0.401 | 0.408 | 0.52 | 0.551 | 2.25 | 2.68 | 0.505 | 0.574 | 1.19 | 2.63 | 0.752 | 0.679 | 0.649
11 | GEVKAYGAGLL [TH_Y419] | 0.497 | 0.309 | 0.459 | 0.453 | 0.371 | 0.319 | 0.503 | 0.363 | 0.404 | 0.498 | 0.342 | 0.451 | 0.342 | 0.818 | 0.457 | 0.393
12 | GFDHSYFFIAT [ESD_Y262_YF] | 1.52 | 0.63 | 0.603 | 7.11 | 5.72 | 0.589 | 1.28 | 0.525 | 0.626 | 5.69 | 0.67 | 1.15 | 0.558 | 0.813 | 0.697 | 0.621
13 | GFEVVYMTEPI [HSP90AB1_Y512] | 1.37 | 0.527 | 0.537 | 0.625 | 0.879 | 0.403 | 1.34 | 0.557 | 0.668 | 1.4 | 0.405 | 0.693 | 0.8 | 0.85 | 0.694 | 0.605
14 | GFQPDYGQPAG [SYP_Y278_YF] | 0.583 | 0.443 | 0.431 | 0.478 | 0.483 | 0.206 | 0.686 | 0.435 | 0.728 | 0.554 | 0.404 | 0.509 | 0.294 | 0.836 | 0.519 | 0.56
15 | GFSDPYVKASL [SYT3_Y470] | 0.568 | 0.329 | 0.436 | 0.444 | 0.4 | 0.488 | 0.722 | 0.374 | 0.38 | 0.646 | 0.391 | 0.544 | 0.393 | 0.796 | 0.801 | 0.452
16 | GFVEDYRPPFY [ACVRL1_Y421_I417F] | 1.33 | 0.495 | 0.491 | 0.56 | 0.754 | 0.541 | 1.13 | 0.517 | 0.496 | 0.969 | 0.52 | 0.868 | 0.522 | 0.96 | 1.03 | 0.626
17 | GGCQEYTGAPY [NAXD_Y85] | 1.35 | 0.636 | 0.587 | 0.627 | 0.843 | 0.524 | 1.06 | 0.525 | 0.577 | 0.83 | 0.409 | 0.699 | 0.52 | 0.935 | 0.748 | 0.608

Row | Sequence | phosphorylation enrichment [1] | phosphorylation enrichment [2] | phosphorylation enrichment [3] | phosphorylation enrichment [4] | phosphorylation enrichment [5] | phosphorylation enrichment [6] | phosphorylation enrichment [7] | phosphorylation enrichment [8] | phosphorylation enrichment [9] | phosphorylation enrichment [10] | phosphorylation enrichment [11] | phosphorylation enrichment [12] | phosphorylation enrichment [13] | SH2 binding enrichment [14] | SH2 binding enrichment [15] | SH2 binding enrichment [16]
18 | GGDQPYSGAGD [TYRO3_Y828_R824G] | 0.673 | 0.501 | 0.481 | 0.485 | 0.698 | 0.436 | 0.791 | 0.453 | 0.474 | 0.775 | 0.408 | 0.562 | 0.432 | 0.872 | 0.64 | 0.596
19 | GGPAGYLRRAS [PKLR_Y38] | 0.717 | 0.406 | 0.398 | 0.405 | 0.442 | 0.377 | 0.678 | 0.636 | 0.458 | 0.529 | 0.528 | 0.671 | 0.429 | 0.666 | 0.42 | 0.514
20 | GGSTFYIDTNA [ACTL6A_Y69_P66S_YF] | 0.923 | 0.523 | 0.48 | 0.528 | 0.651 | 0.475 | 0.987 | 0.4 | 0.461 | 1.01 | 0.477 | 0.734 | 0.39 | 0.735 | 0.952 | 0.562
21 | GIMEEYQLPFF [BMPR1A_Y453_V450M_YF] | 4.83 | 0.648 | 0.914 | 1.7 | 1.32 | 0.587 | 1.11 | 1.2 | 0.676 | 1.09 | 0.499 | 2.27 | 0.894 | 0.719 | 0.464 | 0.49
22 | GIVEDYRPPFY [ACVRL1_Y421] | 0.981 | 0.522 | 0.502 | 0.445 | 0.633 | 0.457 | 0.942 | 0.49 | 0.427 | 0.831 | 0.406 | 0.735 | 0.434 | 0.731 | 0.813 | 0.466
23 | GIVEDYRPPVF [ACVRL1_Y421_F425V_YF] | 0.767 | 0.372 | 0.46 | 0.414 | 0.51 | 0.422 | 0.777 | 0.455 | 0.39 | 0.625 | 0.445 | 0.63 | 0.414 | 0.726 | 0.738 | 0.353
24 | GIVKAYYVHAR [AIPL1_Y267_R270H] | 0.732 | 0.498 | 0.51 | 0.482 | 0.514 | 0.452 | 0.736 | 0.418 | 0.412 | 0.866 | 0.436 | 0.569 | 0.538 | 1.23 | 1.05 | 0.982
25 | GKLIFYDLRGE [KARS1_Y145] | 1.02 | 0.492 | 0.637 | 0.517 | 0.584 | 0.432 | 0.984 | 0.474 | 0.531 | 0.823 | 0.436 | 0.664 | 0.413 | 0.947 | 0.956 | 0.688
26 | GKMSQYLESMQ [CYB5R3_Y130] | 0.646 | 0.336 | 0.454 | 0.444 | 0.426 | 0.373 | 0.583 | 0.457 | 0.494 | 0.539 | 0.435 | 0.548 | 0.517 | 0.657 | 0.715 | 0.415
27 | GKSDPYHATSG [GJA1_Y247] | 0.426 | 0.355 | 0.349 | 0.346 | 0.402 | 0.381 | 0.508 | 0.386 | 0.365 | 0.519 | 0.354 | 0.527 | 0.404 | 0.761 | 0.588 | 0.518
28 | GLAKEYTDPET [CSNK1G2_Y195_I196T] | 1.28 | 0.494 | 0.736 | 0.323 | 0.92 | 0.398 | 1.07 | 0.634 | 0.579 | 1.9 | 0.473 | 0.662 | 0.339 | 0.873 | 0.671 | 1.1
29 | GLCSFYETSKM [MAGED2_Y449_R446C_YF] | 1.4 | 0.71 | 0.903 | 0.568 | 0.931 | 1.95 | 1.45 | 0.652 | 0.794 | 1.34 | 0.706 | 0.82 | 0.83 | 0.895 | 0.689 | 0.797
30 | GMEIVYVYVKK [DNAI2_Y5] | 1.24 | 0.731 | 0.665 | 0.967 | 1.1 | 0.545 | 1.23 | 0.545 | 0.899 | 0.964 | 0.416 | 0.813 | 0.632 | 0.688 | 0.722 | 0.474
31 | GMSQAYSSSQR [DES_Y5] | 0.466 | 0.379 | 0.321 | 0.32 | 0.382 | 0.354 | 0.685 | 0.309 | 0.325 | 0.477 | 0.337 | 0.475 | 0.37 | 0.598 | 0.417 | 0.392
32 | GMTLSYLFREP [NDUFS8_Y74] | 0.763 | 0.501 | 0.579 | 0.606 | 0.633 | 0.367 | 0.877 | 0.397 | 0.509 | 0.848 | 0.365 | 0.652 | 0.505 | 1.23 | 1.4 | 0.915
33 | GNFSGYDDAWD [POLR1C_Y36_YF] | 1.14 | 0.574 | 0.568 | 0.428 | 0.731 | 0.479 | 1.43 | 0.454 | 0.461 | 1.28 | 0.48 | 1.03 | 0.584 | 0.832 | 0.592 | 4.46
